Measured values published in patent US10227388B2, “Peptides and combination of peptides for use in immunotherapy against non-small cell lung cancer and other cancers” (immatics biotechnologies GmbH, priority 2015, dated 2019).

Target: HLA-A*02:01 (Homo sapiens, UniProt P04439, D140Y/D185E/D98H/E176V/E277Q/G131W/G231S/I119V/I121R/I166T/I218V/L300P/L318F/N151K/N90K/P208A/P217A/Q86G/Q94H/R138H/R169H/T345S)
Experiment: MHC binding assay (UV-ligand exchange, ELISA, peptide exchange yield)
Details: binding of HLA-class I restricted peptides to HLA-A*02:01
Text: Candidate peptides for T cell based therapies according to the present invention were further tested for their MHC binding capacity (affinity). The individual peptide-MHC complexes were produced by UV-ligand exchange, where a UV-sensitive peptide is cleaved upon UV-irradiation, and exchanged with the peptide of interest as analyzed. Only peptide candidates that can effectively bind and stabilize the peptide-receptive MHC molecules prevent dissociation of the MHC complexes. To determine the yield of the exchange reaction, an ELISA was performed based on the detection of the light chain ([…]) of stabilized MHC complexes. The assay was performed as generally described in Rodenko et al. (Rodenko et al., 2006).
96 well MAXISorp plates (NUNC) were coated over night with 2-ug/ml streptavidin in PBS at room temperature, washed 4× and blocked for 1 h at 37° C. in 2% BSA containing blocking buffer. […] Peptide-MHC monomers of the UV-exchange reaction were diluted 100 fold in blocking buffer. Samples were incubated for 1 h at 37° C., washed four times, incubated with 2-ug/ml HRP conjugated anti-β2m for 1 h at 37° C., washed again and detected with TMB solution that is stopped with […]. Absorption was measured at 450 nm. Candidate peptides that show a high exchange yield (preferably higher than 50%, most preferred higher than 75%) are generally preferred for a generation and production of antibodies or fragments thereof, and/or T cell receptors or fragments thereof, as they show sufficient avidity to the MHC molecules and prevent dissociation of the MHC complexes.

| Substance | Peptide exchange (MHC class I binding score, peptide exchange yield) |
| --- | --- |
| 611 (YLLDDGTLVV; listed as Homo sapiens) [compound 611] | ″++++″ (≥75% = ++++) |
| 266 (KITDTLIHL; listed as Homo sapiens) [compound 266] | ″+++″ (≥50% = +++) |
| 431 (SLVNVVPKL; listed as Homo sapiens) [compound 431] | ″++″ (≥20% = ++) |
| 530 (VMYADIGGMDI; listed as Homo sapiens) [compound 530] | ″+++″ (≥50% = +++) |
| 596 (ALLDQTKTLAESAL; listed as Homo sapiens) [compound 596] | ″+++″ (≥50% = +++) |
| 370 (SLLQDLVSV; listed as Homo sapiens) [compound 370] | ″+++″ (≥50% = +++) |
| 40 (TLLVKVFSV; listed as Homo sapiens) [compound 40] | ″+++″ (≥50% = +++) |
| 253 (GLDAATATV; listed as Homo sapiens) [compound 253] | ″++″ (≥20% = ++) |
| 449 (KLAEGLDIQL; listed as Homo sapiens) [compound 449] | ″+++″ (≥50% = +++) |
| 353 (YLFEMDSSL; listed as Homo sapiens) [compound 353] | ″++″ (≥20% = ++) |
| 133 (KVLSNIHTV; listed as Homo sapiens) [compound 133] | ″++″ (≥20% = ++) |
| 147 (SLLEAVSFL; listed as Homo sapiens) [compound 147] | ″+++″ (≥50% = +++) |
| 230 (ILVDWLVEV; listed as Homo sapiens) [compound 230] | ″+″ (≥10% = +) |
| 342 (HIYDKVMTV; listed as Homo sapiens) [compound 342] | ″+++″ (≥50% = +++) |
| 528 (SVAEGRALMSV; listed as Homo sapiens) [compound 528] | ″+++″ (≥50% = +++) |
| 167 (KVLEVTEEFGV; listed as Homo sapiens) [compound 167] | ″+++″ (≥50% = +++) |
| 280 (VLPDPEVLEAV; listed as Homo sapiens) [compound 280] | ″+++″ (≥50% = +++) |
| 548 (ALWENPESGEL; listed as Homo sapiens) [compound 548] | ″++″ (≥20% = ++) |
| 614 (LLLPDQPPYHL; listed as Homo sapiens) [compound 614] | ″+++″ (≥50% = +++) |

| Substance | Peptide exchange (MHC class I binding score, peptide exchange yield) |
| --- | --- |
| 550 (FLYDEIEAEVNL; listed as Homo sapiens) [compound 550] | ″+++″ (≥50% = +++) |
| 527 (FLLEPGNLEV; listed as Homo sapiens) [compound 527] | ″++++″ (≥75% = ++++) |
| 588 (SLLPLSHLV; listed as Homo sapiens) [compound 588] | ″+++″ (≥50% = +++) |
| 117 (ILPDGEDFLAV; listed as Homo sapiens) [compound 117] | ″+++″ (≥50% = +++) |
| 284 (ILLSQTTGV; listed as Homo sapiens) [compound 284] | ″+++″ (≥50% = +++) |
| 621 (VLMDRLPSLL; listed as Homo sapiens) [compound 621] | ″++++″ (≥75% = ++++) |
| 246 (LLWEVVSQL; listed as Homo sapiens) [compound 246] | ″+++″ (≥50% = +++) |
| 100 (YLLSTNAQL; listed as Homo sapiens) [compound 100] | ″++++″ (≥75% = ++++) |
| 108 (ALFPGVALLLA; listed as Homo sapiens) [compound 108] | ″++++″ (≥75% = ++++) |
| 198 (KTINKVPTV; listed as Homo sapiens) [compound 198] | ″+++″ (≥50% = +++) |
| 574 (YLLQEPPRTV; listed as Homo sapiens) [compound 574] | ″++″ (≥20% = ++) |
| 188 (GLFPVTPEAV; listed as Homo sapiens) [compound 188] | ″+++″ (≥50% = +++) |
| 30 (LILDWVPYI; listed as Homo sapiens) [compound 30] | ″+++″ (≥50% = +++) |
| 476 (ALMERTGYSMV; listed as Homo sapiens) [compound 476] | ″+++″ (≥50% = +++) |
| 602 (YLLEQIKLIEV; listed as Homo sapiens) [compound 602] | ″++++″ (≥75% = ++++) |
| 184 (YLMDINGKMWL; listed as Homo sapiens) [compound 184] | ″+++″ (≥50% = +++) |
| 165 (SLLDEIRAV; listed as Homo sapiens) [compound 165] | ″+++″ (≥50% = +++) |
| 93 (LLQAIKLYL; listed as Homo sapiens) [compound 93] | ″++″ (≥20% = ++) |
| 365 (YVIDQGETDVYV; listed as Homo sapiens) [compound 365] | ″+++″ (≥50% = +++) |

| Substance | Peptide exchange (MHC class I binding score, peptide exchange yield) |
| --- | --- |
| 485 (NVPDSFNEV; listed as Homo sapiens) [compound 485] | ″+++″ (≥50% = +++) |
| 223 (ALLENIALYL; listed as Homo sapiens) [compound 223] | ″+++″ (≥50% = +++) |
| 508 (ILAQEQLVVGV; listed as Homo sapiens) [compound 508] | ″+++″ (≥50% = +++) |
| 217 (ALIHPVSTV; listed as Homo sapiens) [compound 217] | ″++″ (≥20% = ++) |
| 559 (VTVPPGPSL; listed as Homo sapiens) [compound 559] | ″++″ (≥20% = ++) |
| 228 (AMQEYIAVV; listed as Homo sapiens) [compound 228] | ″++″ (≥20% = ++) |
| 295 (VLDRESPNV; listed as Homo sapiens) [compound 295] | ″+++″ (≥50% = +++) |
| 357 (SMHDLVLQV; listed as Homo sapiens) [compound 357] | ″+++″ (≥50% = +++) |
| 572 (ALADLIEKELSV; listed as Homo sapiens) [compound 572] | ″+++″ (≥50% = +++) |
| 616 (VLIDEVESL; listed as Homo sapiens) [compound 616] | ″+++″ (≥50% = +++) |
| 331 (KVDTVWVNV; listed as Homo sapiens) [compound 331] | ″+++″ (≥50% = +++) |
| 67 (TLLAEALVTV; listed as Homo sapiens) [compound 67] | ″+++″ (≥50% = +++) |
| 170 (RLQETLSAA; listed as Homo sapiens) [compound 170] | ″+++″ (≥50% = +++) |
| 367 (SLQNHNHQL; listed as Homo sapiens) [compound 367] | ″+++″ (≥50% = +++) |
| 107 (FLQPVDDTQHL; listed as Homo sapiens) [compound 107] | ″+++″ (≥50% = +++) |
| 229 (RLPGPLGTV; listed as Homo sapiens) [compound 229] | ″++″ (≥20% = ++) |
| 78 (SLFSSLEPQIQPV; listed as Homo sapiens) [compound 78] | ″+++″ (≥50% = +++) |
| 557 (KLYDDMIRL; listed as Homo sapiens) [compound 557] | ″+++″ (≥50% = +++) |
